Experimental data published in patent US20210380675A1 (Kyowa Kirin, published 2021).

T1: cynomolgus IL-36γ, truncated (cynomolgus macaque (Macaca fascicularis), UniProt Q9NZH8 18-167 (human entry), limits assumed)
T1 construct: Untagged after removal of the His-SUMO tag; also called cynomolgus IL-36 gamma; cyIL-36gamma
T1 chain: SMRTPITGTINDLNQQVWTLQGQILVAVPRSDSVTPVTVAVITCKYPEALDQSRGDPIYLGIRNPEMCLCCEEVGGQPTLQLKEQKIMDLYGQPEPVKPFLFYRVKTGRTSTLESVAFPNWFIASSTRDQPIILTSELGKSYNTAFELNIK

T2: human IL-36γ, truncated (human, UniProt Q9NZH8 18-169)
T2 construct: Bought from R&D Systems (cat 6835-IL); also called human IL-36 gamma; hIL-36gamma
T2 sequence: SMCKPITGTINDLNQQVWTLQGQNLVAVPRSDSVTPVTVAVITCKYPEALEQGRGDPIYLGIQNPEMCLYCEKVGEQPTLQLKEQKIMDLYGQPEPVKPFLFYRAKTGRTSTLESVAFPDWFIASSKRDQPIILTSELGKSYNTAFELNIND

T3: human IL-36α(R12), truncated (human, UniProt Q9UHA7 6-158)
T3 construct: Untagged after removal of the His-SUMO tag; also called hIL-36alpha
T3 chain: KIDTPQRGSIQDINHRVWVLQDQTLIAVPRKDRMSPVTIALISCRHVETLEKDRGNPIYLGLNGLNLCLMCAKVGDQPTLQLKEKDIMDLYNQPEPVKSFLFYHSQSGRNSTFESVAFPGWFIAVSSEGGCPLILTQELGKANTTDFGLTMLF

T4: human IL-36α(Q12), truncated (human, UniProt Q9UHA7 6-158)
T4 construct: Untagged after removal of the His-SUMO tag
T4 sequence: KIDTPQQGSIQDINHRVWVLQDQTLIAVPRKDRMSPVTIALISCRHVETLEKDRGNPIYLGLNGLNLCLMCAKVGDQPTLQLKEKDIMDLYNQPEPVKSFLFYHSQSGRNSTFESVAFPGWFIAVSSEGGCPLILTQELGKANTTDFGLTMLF

T5: cynomolgus IL-36α, truncated (cynomolgus macaque (Macaca fascicularis), UniProt Q9UHA7 14-158 (human entry), limits assumed)
T5 construct: Untagged after removal of the His-SUMO tag; also called cynomolgus IL-36 alpha; cyIL-36alpha
T5 chain: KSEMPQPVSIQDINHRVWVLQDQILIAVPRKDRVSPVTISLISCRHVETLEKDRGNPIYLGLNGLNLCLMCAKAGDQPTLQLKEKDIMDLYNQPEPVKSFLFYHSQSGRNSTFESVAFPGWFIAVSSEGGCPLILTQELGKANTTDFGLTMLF


Assays:
[1] = biological target: T1, cynomolgus IL-36γ, truncated; test: SPR, Biacore T200, antibody on chip, IL-36 as analyte, 1:1 Langmuir fit
Procedure: (§1) Antibodies were further tested for their binding to recombinant human or cynomolgus IL36α, IL-36γ in Biacore assays. In order to kinetically analyze the binding activity of the IL-36α and IL-36γ dual antagonist antibodies, the binding activity to human and cynomolgus IL-36α and IL-36γ was measured by surface plasmon resonance method (SPR). All of the following manipulations were carried out using a Biacore T200 (GE Healthcare Life Sciences, Pittsburgh, Pa.).
(§2) To determine antibody affinity to human and cynomolgus IL36, recombinant antibodies were immobilized on a CM5 sensor chip (cat# BR100012, GE Healthcare Life Sciences, Pittsburgh, Pa.) by an amine coupling chemistry. In particular, the kinetic assay was carried out by immobilizing on the chip approximately 2000 RU of recombinant antibody. Thereafter, recombinant human or cynomolgus IL36 proteins, serially diluted from a high concentration, were allowed to run at a flow rate of 30 μL/min onto the chip for 420 seconds. The dissociation time was 3600 seconds and the binding curves were measured at 25° C. Regeneration was performed with 10 mM glycine pH 1.5 for 30s. Alternatively, the analytes were injected with increasing concentrations in a single cycle, the surface not being regenerated between injections, using a method referred to as “single cycle kinetics.” In particular, either anti-human or anti-mouse Fc specific antibodies were immobilized on a CM5 sensor chip (cat# BR100012, GE Healthcare Life Sciences, Pittsburgh, Pa.) by an amine coupling chemistry. Thereafter, IL-36α and IL-36γ dual antagonist mouse/human chimeric or mouse antibodies were captured at approximately 200 RUs, followed by injections of increasing concentrations of recombinant human and cynomolgus IL36 proteins. The association time was 300 seconds, and the final dissociation time was 1200 seconds. At the end of the analyte injections, the surface was regenerated with either 3M MgCl₂ (anti-human Fc capture antibody) for 30 s or 10 mM glycine-HCl pH 1.7 for 180 s (anti-mouse IgG capture antibody).
(§3) The raw data were double referenced by subtraction of the signals from a reference flow cell without immobilized ligand and a buffer blank. The sensorgram corresponding to each concentration was obtained.

human IL-36γ, truncated [2] = biological target: T2, human IL-36γ, truncated; test: as above
Procedure: as §1, §2, §3

[3] = biological target: T3, human IL-36α(R12), truncated; test: as above
Procedure: as §1, §2, §3

[4] = biological target: T4, human IL-36α(Q12), truncated; test: as above
Procedure: as §1, §2, §3

[5] = biological target: T5, cynomolgus IL-36α, truncated; test: as above
Procedure: as §1, §2, §3

human IL-36γ, truncated [6] = biological target: T2, human IL-36γ, truncated; test: cell-based or functional assay
[7] = biological target: T3, human IL-36α(R12), truncated; test: cell-based or functional assay
[8] = biological target: T1, cynomolgus IL-36γ, truncated; test: cell-based or functional assay
human IL-36γ, truncated [9] = biological target: T2, human IL-36γ, truncated; test: cell-based or functional assay; remark: listed apart in the source
[10] = biological target: T3, human IL-36α(R12), truncated; test: cell-based or functional assay
[11] = biological target: T5, cynomolgus IL-36α, truncated; test: cell-based or functional assay
human IL-36γ, truncated [12] = biological target: T2, human IL-36γ, truncated; test: cell-based or functional assay; remark: listed apart in the source
[13] = biological target: T3, human IL-36α(R12), truncated; test: cell-based or functional assay

Row | Kd [1] | koff [1] | kon [1] | Kd (human IL-36γ, truncated [2]) | koff (human IL-36γ, truncated [2]) | kon (human IL-36γ, truncated [2]) | Kd [3] | koff [3] | kon [3] | Kd [5] | koff [5] | kon [5] | IC50 of IL-8 secretion, primary human keratinocytes, 8.4 nM human IL-36γ, FIG. 4C (human IL-36γ, truncated [6]) | IC50 of IL-8 secretion, primary human keratinocytes, 6.25 nM human IL-36α, FIG. 4A [7] | IC50 of IL-8 secretion, HaCaT, 10 nM cynomolgus IL-36γ, FIG. 2D [8] | IC50 of IL-8 secretion, HaCaT, 10 nM human IL-36γ, FIG. 1F (human IL-36γ, truncated [9]) | IC50 of IL-8 secretion, HaCaT, 10 nM human IL-36α, FIG. 1C [10] | IC50 of IL-8 secretion, HaCaT, 10 nM cynomolgus IL-36α, FIG. 2B [11] | IC50 of IL-8 secretion, primary human monocytes, 50 nM human IL-36γ, FIG. 5D (human IL-36γ, truncated [12]) | IC50 of IL-8 secretion, primary human monocytes, 20 nM human IL-36α, FIG. 5A [13] | Binder | other results
1 | 1.84 nM | 0.000342 s⁻¹ | 186000 M⁻¹ s⁻¹ | 1.48 nM | 0.000218 s⁻¹ | 147000 M⁻¹ s⁻¹ | 2.18 nM | 0.000309 s⁻¹ | 142000 M⁻¹ s⁻¹ | 1.64 nM | 0.000267 s⁻¹ | 163000 M⁻¹ s⁻¹ | 12.8 nM | 2.32 nM | 13.2 nM | 9.54 nM | 7.77 nM | 4.91 nM | 33.3 nM | 7.15 nM | chimeric m/h 144D464A (antibody, human IgG1, lambda, V domains shown, Mouse VH/VL joined to human IgG1 constant and human Ig lambda (IGLC2) constant; also called chimeric mouse/human (m/h) 144D464A antibody) VH: EVQLQQSGAELVKPGASVRLSCTASGFNIKDTYIHWVKQRPEQGLEWIGRIDPAIGTTRYDPKFQGKATITTDTSSDTVHLQFSSLTSEDTAVYYCARLHYFGNNFFFDYWGQGTTLTVSS VL: QAVVTQESALTTSPGEAVTLTCRSSSGAVTTSNYANWVQEKPDHLFAGLIGGTNDRAPGVPARFSGSLIGDKAALTITGAQTEDEAIYFCALWFSNHWVFGGGTKLTVLG | Kd [4]: 1.08 nM; koff [4]: 0.000391 s⁻¹; kon [4]: 361000 M⁻¹ s⁻¹; IC50 of IL-8 secretion, primary human keratinocytes, 8.4 nM human IL-36γ, FIG. 4D (human IL-36γ, truncated [6]): 10 nM; IC50 of IL-8 secretion, primary human keratinocytes, 8 nM human IL-36α, FIG. 4B [7]: 12.3 nM; IC50 of IL-8 secretion, HaCaT, 10 nM human IL-36γ, FIG. 1D (human IL-36γ, truncated [9]): 6.43 nM; IC50 of IL-8 secretion, HaCaT, 10 nM human IL-36α, FIG. 1A [10]: 3.84 nM; IC50 of IL-8 secretion, primary human monocytes, 40 nM human IL-36α, FIG. 5B [13]: 22.4 nM
2 |  |  |  |  |  |  |  |  |  |  |  |  |  |  | 20.6 nM | 12.9 nM | 28.7 nM | 9.61 nM | 39.6 nM | 39.5 nM | 144L133B (antibody, V domains shown) VH: EVQLQQSGAELVKPGASVKLSCTASGFNIKDTYMYWVKQRPEQGLEWIGRIDPAIGTTRYDPKFQGKATLTADTSSNTAFLQLSSLTSEDTAVYYCARYDYSGSSFYFDYWGRGTTLTVSS VL: QAVVTQESALTTSPGETVTLTCRSSTGAVTTSNYANWVQEKPDHLFTGLIGGTNNRAPGVPARFSGSLIGDKAALTITGAQTEDEAIYFCALWYSNHLVFGGGTKLTVL | 

More lines, now with the values behind:

Row | Binder | Kd [1] | koff [1] | kon [1] | Kd (human IL-36γ, truncated [2]) | koff (human IL-36γ, truncated [2]) | kon (human IL-36γ, truncated [2]) | Kd [3] | koff [3] | kon [3] | Kd [5] | koff [5] | kon [5] | IC50 of IL-8 secretion, primary human keratinocytes, 8.4 nM human IL-36γ, FIG. 4C (human IL-36γ, truncated [6]) | IC50 of IL-8 secretion, primary human keratinocytes, 6.25 nM human IL-36α, FIG. 4A [7] | IC50 of IL-8 secretion, HaCaT, 10 nM cynomolgus IL-36γ, FIG. 2D [8] | IC50 of IL-8 secretion, HaCaT, 10 nM human IL-36γ, FIG. 1F (human IL-36γ, truncated [9]) | IC50 of IL-8 secretion, HaCaT, 10 nM human IL-36α, FIG. 1C [10] | IC50 of IL-8 secretion, HaCaT, 10 nM cynomolgus IL-36α, FIG. 2B [11] | IC50 of IL-8 secretion, primary human monocytes, 50 nM human IL-36γ, FIG. 5D (human IL-36γ, truncated [12]) | IC50 of IL-8 secretion, primary human monocytes, 20 nM human IL-36α, FIG. 5A [13] | other results
3 | 144L124B (antibody, V domains shown, Mouse monoclonal from hybridoma; mouse IgG heavy and lambda light chain; Same VH and VL as 144L180A) VH: EVQLQQSGAELVKPGASVKLSCTASGFNIKDTYIYWVKQRPEQGLEWIGRIDPANGYTRYDPKFQGKATMTADTSSNTAYLQLSSLTSEDTAVYYCARYEYYDSSFYFDYWGQGTTLTVSS VL: QAVVTQESALTTSPGETVTLTCRSSTGAVTTSNYANWVQEKPDHLFTGLIGGTNNRAPGVPARFSGSLIGDKAALTITGAQTEDEAIYFCALWYSNHLVFGGGTKLTVL | 0.824 nM | 0.000488 s⁻¹ | 593000 M⁻¹ s⁻¹ | 0.833 nM | 0.000691 s⁻¹ | 829000 M⁻¹ s⁻¹ | 3.56 nM | 0.0417 s⁻¹ | 1.17e+07 M⁻¹ s⁻¹ | 2.54 nM | 0.0192 s⁻¹ | 7.56e+06 M⁻¹ s⁻¹ | 15.8 nM | 11.1 nM | 28.3 nM | 15.8 nM | 42 nM | 14.2 nM | 41.2 nM | 44.2 nM | IC50 of IL-8 secretion, primary human monocytes, 6 nM human IL-36γ, FIG. 5C (human IL-36γ, truncated [12]): 19.1 nM
4 | 144L180A (antibody, V domains shown) VH: EVQLQQSGAELVKPGASVKLSCTASGFNIKDTYIYWVKQRPEQGLEWIGRIDPANGYTRYDPKFQGKATMTADTSSNTAYLQLSSLTSEDTAVYYCARYEYYDSSFYFDYWGQGTTLTVSS VL: QAVVTQESALTTSPGETVTLTCRSSTGAVTTSNYANWVQEKPDHLFTGLIGGTNNRAPGVPARFSGSLIGDKAALTITGAQTEDEAIYFCALWYSNHLVFGGGTKLTVL |  |  |  |  |  |  |  |  |  |  |  |  |  |  | 30.3 nM | 21.3 nM | 22.5 nM | 15.7 nM | 50.9 nM | 96.9 nM | IC50 of IL-8 secretion, primary human monocytes, 6 nM human IL-36γ, FIG. 5C (human IL-36γ, truncated [12]): 5.49 nM
